According to publication PMC8560813:

How the values were obtained:
[1] = target: heme (acquired from hemoglobin resin); assay: visible spectroscopy after incubation with hemoglobin resin; details: mean difference before and after incubation with beads, three independent experiments; parent: est. 0.40; read off a plot
[2] = target: bovine holo hemoglobin, P01966;P02070; assay: pull-down (hemoglobin resin, anti-His Western, band intensity quantified); details: three independent pull-down experiments; parent: est. 7.5; read off a plot

## apo HphA (hemophilin), N-terminal 6X His tagged, heme stripped by acid-acetone extraction (from UniProt A0A059ZRB8) H43A; H106A
[1]
  response: 0.03 ΔAbsorbance
[2]
  response: 1.5 % of Input
